Measurements taken from US20230248800A1.

What follows are binders tested against human V1a receptor (human) (UniProt P37288) (assay: cell-based or functional assay).
human V1a receptor (human), sequence (P37288 whole entry): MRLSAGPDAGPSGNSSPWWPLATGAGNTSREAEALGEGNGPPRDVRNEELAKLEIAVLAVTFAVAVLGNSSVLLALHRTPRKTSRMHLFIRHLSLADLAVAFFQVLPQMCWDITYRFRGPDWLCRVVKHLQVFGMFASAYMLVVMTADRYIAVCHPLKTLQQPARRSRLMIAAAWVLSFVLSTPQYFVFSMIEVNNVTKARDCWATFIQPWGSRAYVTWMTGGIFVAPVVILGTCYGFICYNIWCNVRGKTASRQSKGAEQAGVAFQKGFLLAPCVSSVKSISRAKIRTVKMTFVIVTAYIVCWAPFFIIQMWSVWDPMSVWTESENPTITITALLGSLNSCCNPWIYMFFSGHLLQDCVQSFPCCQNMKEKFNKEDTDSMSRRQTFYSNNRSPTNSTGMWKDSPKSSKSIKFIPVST

Row | Estimated V1a EC50 (calcium flux) [nM] | V1a Highest agonist effect (% of AVP) | Binder
1 | 161 | 33.6 % of AVP | XFXNCPXG (Mpa at position 1, disulfide bond between Mpa and Cys; Hgn at position 4; (Gly)4 on the side chain of Lys 8; C-terminal amide) [Mpa-Tyr-Phe-Hgn-Asn-Cys-Pro-Lys(X)a-Gly-NH2; (X)a = (Gly)4 [SEQ ID NO. 11]]
2 | 45.9 | 28.2 % of AVP | XFXNCPXG (Mpa at position 1, disulfide bond between Mpa and Cys; Hgn at position 4; (Gly)6 on the side chain of Lys 8; C-terminal amide) [Mpa-Tyr-Phe-Hgn-Asn-Cys-Pro-Lys(X)a-Gly-NH2; (X)a = (Gly)6 [SEQ ID NO. 13]]
3 | 38.2 | 37 % of AVP | XFXNCPXG (Mpa at position 1, disulfide bond between Mpa and Cys; Hgn at position 4; (Gly)2 on the side chain of Lys 8; C-terminal amide) [Mpa-Tyr-Phe-Hgn-Asn-Cys-Pro-Lys(X)a-Gly-NH2; (X)a = (Gly)2 [SEQ ID NO. 9]]
4 | 53.5 | 32.9 % of AVP | XFXNCPXG (Mpa at position 1, disulfide bond between Mpa and Cys; Hgn at position 4; (Gly)3 on the side chain of Lys 8; C-terminal amide) [Mpa-Tyr-Phe-Hgn-Asn-Cys-Pro-Lys(X)a-Gly-NH2; (X)a = (Gly)3 [SEQ ID NO. 10]]
5 | 50.1 | 29.6 % of AVP | XFXNCPXG (Mpa at position 1, disulfide bond between Mpa and Cys; Hgn at position 4; (Gly)5 on the side chain of Lys 8; C-terminal amide) [Mpa-Tyr-Phe-Hgn-Asn-Cys-Pro-Lys(X)a-Gly-NH2; (X)a = (Gly)5 [SEQ ID NO. 12]]
6 | 30.9 | 26.1 % of AVP | XFXNCPXG (Mpa at position 1, disulfide bond between Mpa and Cys; Hgn at position 4; (Gly)7 on the side chain of Lys 8; C-terminal amide) [Mpa-Tyr-Phe-Hgn-Asn-Cys-Pro-Lys(X)a-Gly-NH2; (X)a = (Gly)7 [SEQ ID NO. 14]]
7 | 105 | 28.1 % of AVP | XFXNCPXG (Mpa at position 1, disulfide bond between Mpa and Cys; Hgn at position 4; (Gly)9 on the side chain of Lys 8; C-terminal amide) [Mpa-Tyr-Phe-Hgn-Asn-Cys-Pro-Lys(X)a-Gly-NH2; (X)a = (Gly)9 [SEQ ID NO. 16]]
8 | 25.3 | 40.3 % of AVP | XFXNCPXG (Mpa at position 1, disulfide bond between Mpa and Cys; Hgn at position 4; Gly on the side chain of Lys 8; C-terminal amide) [Mpa-Tyr-Phe-Hgn-Asn-Cys-Pro-Lys(X)-Gly-NH2; X = Gly [SEQ ID NO. 8]]
9 | 226 | 24.8 % of AVP | XFXNCPXG (Mpa at position 1, disulfide bond between Mpa and Cys; Hgn at position 4; (Gly)8 on the side chain of Lys 8; C-terminal amide) [Mpa-Tyr-Phe-Hgn-Asn-Cys-Pro-Lys(X)a-Gly-NH2; (X)a = (Gly)8 [SEQ ID NO. 15]]
